The source of these data is article PMC7430652.

The test concerns the target 39S large mitoribosome subunit (mtLSU) (human (endogenous in HEK293T and 143B)). The test can be described thus: co-sedimentation.

B1: GTPBP5 (natural protein)
chain: MAPARCFSARLRTVFQGVGHWALSTWAGLKPSRLLPQRASPRLLSVGRADLAKHQELPGKKLLSEKKLKRYFVDYRRVLVCGGNGGAGASCFHSEPRKEFGGPDGGDGGNGGHVILRVDQQVKSLSSVLSRYQGFSGEDGGSKNCFGRSGAVLYIRVPVGTLVKEGGRVVADLSCVGDEYIAALGGAGGKGNRFFLANNNRAPVTCTPGQPGQQRVLHLELKTVAHAGMVGFPNAGKSSLLRAISNARPAVASYPFTTLKPHVGIVHYEGHLQIAVADIPGIIRGAHQNRGLGSAFLRHIERCRFLLFVVDLSQPEPWTQVDDLKYELEMYEKGLSARPHAIVANKIDLPEAQANLSQLRDHLGQEVIVLSALTGENLEQLLLHLKVLYDAYAEAELGQGRQPLRW
Consider B1, for which the percent of total GTPBP5 co-sedimenting amounted to 60%.
